Data reported in patent CN114478784A (SHAANXI PULSE ELEMENT BIOTECHNOLOGY LTD COMPANY, dated 2022).

Assays:
[1] = target: T1, ENO2 with C-terminal flag tag (ENO2flag-pcDNA3.1, expressed in transfected cells, lysate) (UniProt P09104 2-434); experiment: Western blot, lysate of cells transfected with ENO2flag-pcDNA3.1, hybridoma supernatant as primary antibody
T1 construct: Denatured cell lysate on SDS-PAGE / PVDF membrane (Western blot); also called ENO2抗原; not shown: C-terminal flag tag

[2] = target: T2, ENO2-GST (human ENO2 expressed from pGEX 4t-1, GST-purified) (human, UniProt P09104 1-434); experiment: ELISA screening of hybridoma supernatants on coated ENO2-GST (100 ng/well), three rounds of subcloning
T2 construct: Expressed in E. coli BL21(DE3) and used to coat the ELISA plates; also called pGEX 4t-1载体表达的ENO2; ENO2抗原; not shown: GST tag of vector pGEX 4t-1

[3] = target: 纯化的ENO2蛋白 (purified ENO2 protein coated in Example 7) (UniProt P09104 1-434, limits assumed); experiment: ELISA, ENO2 coated at 100 ng/well, 293T supernatant, HRP anti-heavy-chain IgG / anti-kappa secondary, OD450
Chain of 纯化的ENO2蛋白 (purified ENO2 protein coated in Example 7) (P09104 whole entry): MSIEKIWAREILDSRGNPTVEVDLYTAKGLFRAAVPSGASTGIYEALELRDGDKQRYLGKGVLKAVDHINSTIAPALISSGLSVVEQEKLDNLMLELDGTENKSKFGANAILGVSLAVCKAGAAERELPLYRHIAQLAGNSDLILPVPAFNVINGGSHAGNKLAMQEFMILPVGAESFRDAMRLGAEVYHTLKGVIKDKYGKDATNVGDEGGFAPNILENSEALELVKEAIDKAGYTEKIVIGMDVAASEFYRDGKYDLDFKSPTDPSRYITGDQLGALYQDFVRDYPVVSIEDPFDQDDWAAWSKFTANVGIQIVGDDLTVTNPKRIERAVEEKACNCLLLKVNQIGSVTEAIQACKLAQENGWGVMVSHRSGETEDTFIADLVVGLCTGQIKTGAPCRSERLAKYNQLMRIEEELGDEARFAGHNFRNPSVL

T1 sequence (P09104 2-434 limits assumed): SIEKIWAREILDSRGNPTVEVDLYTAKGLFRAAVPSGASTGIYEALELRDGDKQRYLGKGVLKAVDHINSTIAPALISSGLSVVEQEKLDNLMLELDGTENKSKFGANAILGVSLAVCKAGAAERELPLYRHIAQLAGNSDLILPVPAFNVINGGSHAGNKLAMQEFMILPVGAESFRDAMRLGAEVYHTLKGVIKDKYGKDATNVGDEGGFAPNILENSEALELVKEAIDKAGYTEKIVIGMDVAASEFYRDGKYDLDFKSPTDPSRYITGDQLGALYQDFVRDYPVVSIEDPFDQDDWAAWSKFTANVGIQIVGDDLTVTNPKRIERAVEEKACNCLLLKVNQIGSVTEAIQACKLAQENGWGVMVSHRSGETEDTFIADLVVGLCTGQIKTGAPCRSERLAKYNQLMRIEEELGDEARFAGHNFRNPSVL
T2 sequence (P09104 whole entry): as the sequence (P09104 whole entry) above

B1: ENO2单克隆抗体1C5 (from hybridoma) (antibody, V domains shown)
VH: EVKLVESGGDLVQPGGSLRLSCATSGFTFTDYYMIWVRQPPGKALEWLGFIRNKANGYTTQYNASVKGRFTISRDNSQSILYLQMNTLRPEDSATYYCVRDRRGTTFAYWGQGTLVTVSA
VL: QAVVTQESALTTSPGETVTLTCRSNTGAVTTSNYANWVQEKPDHLFTGLIGGTYNRAPGVPARFSGSLIGDKAALTITGAQTEDEAIYFCSLWYSNHWVFGGGTKLTVL
notes: It was used as hybridoma culture supernatant in the assays; also called 1C5单克隆抗体; 杂交瘤细胞上清
- binding result [1]: binds
- binding result [2]: binds

B2: 1C5mk alone (recombinant 1C5 light chain, transfected without the heavy chain) (other)
light: QAVVTQESALTTSPGETVTLTCRSNTGAVTTSNYANWVQEKPDHLFTGLIGGTYNRAPGVPARFSGSLIGDKAALTITGAQTEDEAIYFCSLWYSNHWVFGGGTKLTVLRADAAPTVSIFPPSSEQLTSGGASVVCFLNNFYPKDINVKWKIDGSERQNGVLNSWTDQDSKDSTYSMSSTLTLTKDEYERHNSYTCEATHKTSTSPIVKSFNRNEC
notes: Tested as supernatant of 293T cells transfected with the light chain plasmid only; also called 轻链1C5mk
- binding result [3]: no binding
